According to article PMC2912373, “Low-Density Lipoprotein Receptor-Related Protein 1 (LRP1) Mediates Neuronal Aβ42 Uptake and Lysosomal Trafficking” (PLoS ONE, 2010):
Entries after “also recorded” stand apart in the source; their conditions may differ.

Assays:
N2a-mLRP4 cells = experiment: MTS redox cell viability assay in Aβ42 treated cells; assay type: cell-based, mouse; details: 3 µM Aβ42, 72 h; only in mLRP4-expressing cells, not N2a-pcDNA3; p<0.05, n = 3
Method: We hypothesized that Aβ42 treatment might increase cell death in mLRP4-overexpressing N2a cells because we detected increased co-localization of Aβ42 with lysosomes in these cells. We treated N2a-pcDNA3 and N2a-mLRP4 cells with Aβ42 for 24, 48 and 72 h and assessed cell viability by reduction of the MTS redox dye. Aβ42 was prepared identically to the FAM-Aβ42 experiments.
Figure 5 Increased susceptibility to Aβ42-mediated cell death in LRP1 minireceptor-expressing cells. N2a-pcDNA3 and N2a-mLRP4 cells were incubated with increasing concentrations of Aβ42 for 24, 48 and 72 h and cell viability was assessed by the reduction of the MTS dye.
N2a-pcDNA3 and N2a-mLRP4 cells were plated at 16,250 cells/cm^2 in 48-well plates and grown overnight. Serial dilutions of freshly prepared synthetic Aβ42 were prepared by diluting the Aβ42 stock with internalization media. Culture media was then replaced with media containing 0, 1 or 3 µM Aβ42 and cells were incubated for an additional 24, 48 or 72 h. Cell viability was measured by using one-solution cell titer kit at each corresponding time point (Promega, Madison, WI). After 4 h labeling, the soluble reduced formazan product was quantified by directly reading the plate in a Bio-Tek plate reader. After background subtraction from media-only containing wells, results were represented as % of the corresponding control and untreated N2a cells.

LRP1 = details: ref [23], [36]; cited from earlier work
N2a-mLRP4-Tless cells = experiment: Kinetic analysis of 125I-RAP endocytosis; assay type: cell-based, mouse; details: 5 nM 125I-RAP, 4°C 60 min, then 37°C; internalized/total cell-associated ligand; triple determinations
Method: Figure 4 LRP1 endocytosis is required for Aβ42 uptake and accumulation in N2a cells. A, clathrin heavy chain (CHC) knockdown increases cell surface levels of mLRP4. N2a-mLRP4 cells were infected with CHC shRNA lentivirus or pLKO, control lentivirus. The levels of cell surface and total pools of mLRP4 were determined by flow cytometric analyses with anti-HA antibody in non-permeabilized and saponin-treated cells, respectively. The surface-to-total ratio were calculated and plotted as fold-change to control-infected cells. Right panel, decreased CHC levels and normal mLRP4 levels in transduced N2a-mLRP4 cells were verified by Western blot from sister cultures. […] The intracellular level of FAM-Aβ42 was determined by flow cytometric analyses of pronase-treated cells. […] The cell surface and total pools of the LRP1 minireceptor were determined by flow cytometric analyses with anti-HA antibody as in A in N2a-mLRP4 cells and in N2a cells stably transfected with a deletion variant lacking the cytoplasmic tail of mLRP4 (mLRP4-Tless). The surface-to-total ratios were then calculated and plotted as fold-change to N2a-mLRP4 cells. […] At each time point, the amounts of ligand that is either internalized or that remains at the cell surface were determined and the ratios of internalized to total cell-associated ligand were plotted against time. […]

Aβ42: Unlabeled synthetic Aβ42 obtained from Bachem
cell viability (reduction of MTS dye) (N2a-mLRP4 cells): slight yet significant decrease; also recorded: Decreased viability

RAP: LRP1 chaperone of 39-kDa, model extracellular ligand for LRP1; labeled with Alexa-488 for uptake
affinity of RAP binding to LRP1 (LRP1): high affinity

B1: ^125I-RAP: iodinated RAP protein used at 5 nM for kinetic analysis of endocytosis (protein, UniProt P30533 35-357, looked up)
Alpha-2-macroglobulin …: YSREKNQPKPSPKRESGEEFRMEKLNQLWEKAQRLHLPPVRLAELHADLKIQERDELAWKKLKLDGLDEDGEKEARLIRNLNVILAKYGLDGKKDARQVTSNSLSGTQEDGLDDPRLEKLWHKAKTSGKFSGEELDKLWREFLHHKEKVHEYNVLLETLSRTEEIHENVISPSDLSDIKGSVLHSRHTELKEKLRSINQGLDRLRRVSHQGYSTEAEFEEPRVIDLWDLAQSANLTDKELEAFREELKHFEAKIEKHNHYQKQLEIAHEKLRHAESVGDGERVSRSREKHALLEGRTKELGYTVKKHLQDLSGRISRARHNEL
modifications: 125I-labeled
notes: iodinated RAP protein used at 5 nM for kinetic analysis of endocytosis
endocytosis rate for 125I-RAP in N2a-mLRP4-Tless vs N2a-mLRP4 cells (N2a-mLRP4-Tless cells): decreased
